{
  "source": "patent US9447158B2",
  "binders": {"B1": {"name": "WLRRIKA (peptide)", "peptide": "WLRRIKA"}},
  "target": "MAPKAP Kinase II (MK2)",
  "data": [
    {"binder": "B1", "values": [
      {"measurement": "% of … [SEQ ID NO: 115] Reaction Velocity at an Inhibitor Concentration of 100 µM", "result": 394, "unit": "%"}
    ]}
  ]
}
